According to patent US20220403048A1, “BINDING MOLECULES TO ARGINASE II [ARG2]” (Cancer Research Technology Limited, priority 2019, published 2022):

Target: T1, THP-1 lysate derived human trimeric ARG2 (Homo sapiens, UniProt P78540)
T1 construct: expressed in transfected cells; host or cells: THP-1 cells overexpressing human ARG2 (cell lysate)
T1 sequence (P78540 23-354): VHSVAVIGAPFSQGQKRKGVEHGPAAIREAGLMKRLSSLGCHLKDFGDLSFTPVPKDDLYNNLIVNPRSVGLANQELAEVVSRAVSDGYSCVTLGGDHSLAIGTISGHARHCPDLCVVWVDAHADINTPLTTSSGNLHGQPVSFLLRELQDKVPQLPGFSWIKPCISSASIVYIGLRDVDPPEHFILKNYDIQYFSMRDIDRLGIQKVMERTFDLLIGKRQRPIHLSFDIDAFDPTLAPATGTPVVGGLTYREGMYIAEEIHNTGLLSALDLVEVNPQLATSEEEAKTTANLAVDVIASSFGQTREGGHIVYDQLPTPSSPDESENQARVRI
Experiment: ELISA binding to THP-1 lysate derived human ARG2
Details: biotinylated recombinant human IgG1, FIG. 6
Description: C0020187 and C0020065 IgGs were tested for their ability to bind to mammalian expressed human ARG2 produced in transfected THP-1 cells. Lysates of human ARG2 transfected THP-1 cells were prepared and binding to these lysates measured using an ELISA.
Cell lysates were prepared from THP-1 cells overexpressing human ARG2 and from wild type THP-1 cells. Between 600,000-1,000,000 cells were suspended in 1 ml tris-buffered saline (25 mM tris+150 mM sodium chloride in dH2O, pH 7.4) and cell lysates prepared using QIAshredders (QIAgen, UK; cat: 79654).
For the ELISA, maxisorp white plates (Nunc; cat: 437796) were coated overnight at 4° C. with rabbit anti-human ARG2 antibody (Abcam, ab137069) at 1 μg/ml in PBS. The next day, the plate was washed with PBS and blocked with casein blocker (Thermo Scientific, 37528). […]
The blocked ELISA plate was washed with PBS and 50 μl of the pre-incubation mixtures were transferred to the ELISA plate and incubated for 90 minutes at room temperature. […] Next, 100 μl PICO ELISA substrate (Thermo Scientific, 37070) was added to each well, the plate was incubated for 1 minute at room temperature in the dark before being read for luminescence using the Envision plate reader. Data were analysed using GraphPad Prism. […]

- binding to THP-1 lysate derived human trimeric ARG2: strong binding
B1: C0020065: anti-ARG2 antibody, alternate lead isolation clone, VH SEQ ID NO: 2, VL SEQ ID NO: 7 (antibody, listed as Homo sapiens, V domains shown)
VH: GVNLRESGGGVVQPGRSLRLSCAASGFTFSSYAMHWVRQAPGKGLEWVAVISYDGSNKYYVDSVKGRFTISRDNSKNTLYLQMNSLRAEDTAVYYCARDSSQLWFDYWGRGTLVTVSS
VL: QSVVTQPPSVSGAPGQRVTISCTGSSSNIGTGYDVHWYQQLPGTAPKLLIYGNSNRPSGVPDRFSGSKSGTSASLAITGLQAEDEADYYCQSYDSSLSGSVVFGGGTQLTVL
modifications: C0020065
